Measured values from the nanobody polyreactivity screen of Harvey et al. (2022).

Assay: yeast display, Sf9 membrane polyspecificity reagent, FACS + sequencing; frameworks hold sequencing errors
Procedure, shortened: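 After 36–48 hours of galactose induction, yeast (Saccharomyces cerevisiae BJ5465) displaying a synthetic nanobody library were stained at 4 °C for 1 hour with 10% biotinylated, detergent-solubilized Sf9 membrane reagent. Streptavidin microbeads enriched the stained cells before FACS sorting into low and high (top ~1%) gates on anti-HA and streptavidin fluorescence. Each clone's polyreactivity label reflects its gate of origin.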

| Sequence | polyreactivity (PSR sort gate) |
| --- | --- |
| QVQLVESGGGLVQAGGSLRLSCAASGFIFVPYAMGWYRQAPGKERELVAAISSGGSTYYADSVKGRFTISRDNAKNTVYLQMNSLKPEDTAVYYCNKRYYLYQYRYDYWGQGTQVTVSS | low polyreactivity |
| QVQLVESGGGLVQSGGSLRLSCAASGSTSTSYVMGWYRQAPGKERELVAVITLRSGVTYYADSVKARFTISRDNPKYTVYLQMNSLKAEDTAVYYCNAATVVYTRVWRGYWGQGTHVTVSS | low polyreactivity |
| QVQLVESGGGLVQAGGSLRLSCAASGFTFYRNDIGWYRQAPGKERELVAAITFSGGITYYADSVKGRFTISRDNAKNTVYLQMNSLKAEDTAVYYCAAEGVGAARVYQGGEYNYWGQGTQVTVSS | low polyreactivity |
| QLQLVESGGGLVQAGGSLRLSCAASGIIFRWYAMGFYRQAPGKERELVAAITSSGGRTYYADSVKGRFTISRDNAKNTVYLPMNILKPEDTAVYYCAASYYIVGCDPYDYWGQGTQVTVSS | high polyreactivity |
| QDQLVDSGGGLLQAGGSLRLSCAASGSTFHPYAMGWYRQAPGKERELVAAITFSGGSTYADSVKGRFTISRDNAKNTVYIQMNSLKPEDTAVYYCAAEWWYWRGWRDYWGQGTQVTVSS | low polyreactivity |
| QVQLVESGGGLVQAGGSLRLSCAASGFTFDYYTMGWYRQAPGKERELVAAITSSAGSTDYADSVKGRFTISRDYAKNTVYLQMNSLKPEDTAVYYCNADFLYGTYDYWGQGTQVTVSS | low polyreactivity |
| QDQLVESGGGLVQAGGSLRLSCAASGSTFKKYALGWYRQAPGKERELVAAITGSGGRTYYADSVKGRFTISRDNAKNTVYLQMNSLKPEDTAVYYCAARRYLSGGYYYCGQGTQVTVSS | high polyreactivity |
| QVQLVESGGGLVQAGGSLRLSCAASGRTSTIYTMGWYRQAPGKEREFVASISAGAGTYYADSVKGRFTISRDNAKNTVYLQMNSLKPEDTAVYYCSASVYWRSTRRHQMDYWGQGTQVTVSS | high polyreactivity |
| QVQLVESLGGLVQAGGSLRLSFAASGFIFAKYAIGWYRKAAGKERELVAAITSGGSTNYADSVKGRFTISRDNAKNTVFLQMNSLKPEDTAVYYCNRGFDWCYRYRHYDYCGQGTQVTVSS | low polyreactivity |
| QVQLVESGGGLLQAGGILRLSCAASGRTFGLYAMRWYRQAPGKERELVAAIRGSAGSTYYADSVKGRFTISRDNAKNTVYLQMNSLKPEDTAVYYCATVGYPSLWYGYGYWGQGTQVTVSS | low polyreactivity |
| QVQLVESGGGLVQAGGSLRLSCAASGRTFLYYTMGWYRQAPGKERELVAAITSGTSTNYADSVKGRFTIARDNAKNTVYLQMNSQKPEDTAVYYCNKRAARSLNGYPLYGYYSWGQGTQVTVSS | low polyreactivity |
| QVQLVESGGGLVQAGGSLRLSCAASGFIISVYAMGWYRQAPGKERELVARIDSGGSTYYADSVKGRFTISRDNAKNTVYLQMNSLKPEDTAVYYCATDEGTVGGQQLRPLMDYWGQGTQVTVSS | low polyreactivity |
| QVQLVESGGGLVQAGGSLRLSCAASGRIFAYNAMGWYRQAPGKERELVAAITWSGGITYYADSVKGRFTISRDNAKNTVYLQMNSLKPEDTAVYYCNVYVSAGEEDEYWGQGTQVTVSS | low polyreactivity |
| QVQLQESGGGLVQAGGSLRLGCAASGNISDAGYMGWYRQAPGKEREFVAAIAAGSNTNYADSVKGRFTISRDNAKNTVYMQLNSLKSEDTGVFYCAVASYDRVQYEYWGQGTQVTVNS | low polyreactivity |
| QVQLVESGGGLVQAGGSLRLSCAASGNIIDANAIGWYRPAPGKERQLVAAITSSGGSTYYADSVKGRFTISRDNAKNTVYLQMNSLKPEDTAVYYCAKSHAIYYWWDESWGQGTQVTVSS | low polyreactivity |
| QVQLVESGGGLVQAGGSLRLSCAASGSTFGYNAMGWYRPAPGKERELVAAISWNGGSTYYADSVKGRFTISRDNAKTTVYLQMNSLKPEDTAVYYCAAEHRGYFTRYDYWGQGTQVTVSS | low polyreactivity |
| QVQLVESGGGLVQAGGSLRVSCAASGSNFGGYAMGWYRQAPGKERELVAAISSRGIDTTYADSVKVRFTISRDNAKNTVYLQMYSLKPDDTAVYYCAEFVSDATVGPSNGLDYWGQGTQVTVSS | low polyreactivity |
| QVQLVESGGGLVQAGGSLRLSCAASGSIFWPNAMGWYRQAPGKERELVAAISWGTGSTYYADSVKGRFTISRDNAKNTVYLQMNSLKPEDTAVYYCAADGAYLDPYYDYWGQGTQVTVLS | low polyreactivity |
| QVQLVESGGGLVQAGGSLRLSCAASGSIFTFYAMGWYRQAPGKERELVATITISTGSTYYADSVKGRFTISRDNAKNTVYLQMNCLKPEDTAVYYCAARRRSAEYNYWGQGTQVTVSS | high polyreactivity |
| QVQLVESAGGLVQAGGSLRLSCAASGRTFIQYAMGWYRQAPGKERELVAVIRWSGGRTYYADTVKGRFTISRDNAKNTVYLQMNSLKPEDTAVYYCAKRSGSTFDWGQGTQVTVSS | high polyreactivity |
| QVQLVESGGGLVQAGGSLGLSCAASGIIFGKYAMGWYRQAPGKERELVASITVDGGTTYYADSVKGLFTISRDNANNTVYLQMNSLKPEDTAVYYCATGVFAELWFDYWPYDYWGQGTQVTVSS | high polyreactivity |
| QVQLVETGGGLVQAGGSLRLSCAASGGIIRVYVMGWYIQAPGKERELVAAISRRGGSTYYADSVKGRFTISRDNAKNTVYLKMNSLKPEDTAVYYCAAYSTGTEFDYWGQGTQVSVSS | high polyreactivity |
